Marks after values point to notes of the source that are not given here.
Key:
PYR1*^-MANDI = molecular target: T1, PYR1*^-MANDI (Arabidopsis thaliana, UniProt O49686, A160V/F108A/F159V/K59R/M158I/S122G/T162D/V81I/Y58H); experiment: Yeast two hybrid, mandipropamid-induced interaction of HAB1 variants with pBD-PYR1*^-MANDI; format: cell-based; details: selection on 500 nM mandipropamid
T1 construct: expressed in transfected cells; host or cells: S. cerevisiae strain MAV99 (selection)
T1 sequence (O49686 1-191 Y58H/K59R/V81I/F108A/S122G/M158I/F159V/A160V/T162D): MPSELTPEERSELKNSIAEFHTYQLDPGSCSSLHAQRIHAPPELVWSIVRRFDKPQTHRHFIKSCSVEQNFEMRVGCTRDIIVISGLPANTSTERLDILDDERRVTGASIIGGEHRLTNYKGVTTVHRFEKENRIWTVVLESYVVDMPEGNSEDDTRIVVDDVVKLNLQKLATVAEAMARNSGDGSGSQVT
Source text: To investigate the effects of overexpressing HAB1^!-2 in Arabidopsis, we used Agrobacterium mediated transformation to generate 35S::GFP-HAB1^!-2 transgenic plants. HAB1^!-2 was cloned from pACT-HAB1^!-2 into pEGAD, a binary vector suitable for plant transformation, generating a 35S-driven GFP-HAB1^!-2 fusion protein. The clone was transformed into Agrobacterium and the floral dip method used to transform Arabidopsis. After selection of T0 seed on soil containing glufosinate, several T1 seedlings were identified. […] As an alternate strategy, we eliminated HAB1's catalytic activity by introducing a mutation in a conserved metal-ion binding residue (D204), which is homologous to D131A mutation in ABI1, previously shown to eliminate phosphatase activity without disrupting wild type receptor-ABI1 interactions (Liang et al., 2011). We used QuickChange mutagenesis to introduce the D204A mutation into pACT-HAB1^!-2, generating pACT-HAB1^!-3. When tested for mandipropamid induced interactions with pBD-PYR1*^-MANDI, HAB1^!-3 is ˜10-fold less sensitive to mandipropamid relative to HAB1^!-2 (FIG. 5).
D204 is located within HAB1's catalytic active site and binds to one of 3 catalytic Mg^++ ions that participate in catalysis. […] It is likely that disruptions to active site structure introduced by D204A destabilize the PYR1*^-MANDI/HAB1^!-3 interaction relative to HAB1^!-2. We reasoned that suppressor mutations in other HAB1 interface or active site residues could restore sensitivity by strengthening interactions with PYR1*^-MANDI. To identify such suppressors, we mutagenized the pACT-HAB1^!-3 template using NNK mutagenesis in 28 residues located with at the PYR1 binding interface. The residues targeted were: R199, S200, E201, E203, D243, G244, H245, G246, G247, S322, E323, T324, D346, K365, K381, 1383, Q384, W385, Q386, R389, F391, G392, Y404, S431, G433, D436, D492 and N394. The pACT-HAB1^!-3 template was mutagenized in 28 separate NNK mutagenesis reactions using the QuickChange protocol. Mini-libraries, each containing ˜1000 clones, were made for each NNK reaction and plasmid DNA for the 28 mutations prepared, pooled, and then transformed into S. cerevisiae strain MAV99 co-transformed with pBD-PYR1*^-MANDI, and then plated onto selective SD(-Leu,-Trp,-Ura) agar media supplemented with 500 nM mandipropamid. […] S322D and R199A were combined using the Lightning Multi-site Mutagenesis™ (Agilent, USA) method, and the resultant pentuple mutant tested in combination with pBD-PYR1*^-MANDI for sensitivity to mandipropamid using β-galactosidase assays.

HAB1^!-2 = experiment: Yeast two hybrid, mandipropamid-promoted interaction of PYR1 variants with HAB1^!-2; format: cell-based; details: for mandipropamid concentration to which the interaction responds: FIG. 3, FIG. 4; for relative mandipropamid sensitivity among selected mutants: β-galactosidase assays on different mandipropamid concentrations
Source text: To engineer orthogonal mandipropamid responsiveness, we introduced the PYR1^! mutation into the PYR1^MANDI receptor to create a septuple mutant called PYR1^!-MANDI (PYR1^Y58H;K59R;V81I;F108A;S122G;F159L;T162D). This mutant interacts with HAB1^! and HAB^!-2 in response to low μM mandipropamid in yeast two-hybrid assays, but is ˜100-fold less sensitive than the PYR1^MANDI/HAB1 interaction, which responds to concentrations in the low nM range (FIG. 3).
To improve sensitivity, we mutagenized ligand contacting and interface residues in PYR1^!-MANDI using NNK primers, pooled the mutant libraries, and used the mutagenized receptors in selection experiments using to identify enhancer mutations. The NNK mutagenesis screen targeted the following residues: P55, H60, F61, I62, K63, V83, S85, G86, L87, P88, A89, S92, E94, I110, H115, R116, L117, Y120, E141, P148, G150, N151, D154, D155, T156, M158, A160, V163, V164, L166, N167, and K170. […] Since M158 and A160 flank the […] mutation present in PYR1^MANDI, we inferred that the closely located orthogonalizing T162D mutation in PYR1^!-MANDI may have reduced mandipropamid sensitivity by altering the local structure of the C-terminal α3-helix, which participates in ligand-induced conformational changes needed for PP2C binding (Nishimura et al., 2009). We therefore simultaneously mutagenized positions M158, F159 and A160 using a primer with degenerate NNK codons at all three positions. F159 was included in this mutagenesis because we have previously observed that multiple substitutions at F159 (A,C,I,L,M,T, or V) are permissive for mandipropamid responsiveness (S. Y. Park et al., n.d.), and sought to test whether residues other than leucine at position 159 might function better in the context of simultaneous changes to both A160 and M158. The mutagenic primer was used in QuickChange mutagenesis reactions using pBD-PYR1^!-MANDI template, and a library of ˜12,000 clones was generated. Plasmid DNA for the library was prepared from pooled E. coli transformants, and subsequently transformed into S. cerevisiae strain MAV99 harboring pACT-HAB1^!-2. ˜20,000 yeast transformants were generated, pooled, and plated onto SD(-Leu,-Trp) agar media supplemented with 0.1% fluorotic acid (to select against mutants that interact in a ligand-independent fashion). The surviving cells were collected and plated onto SD(Leu,-Trp,-Ura) plates supplemented with 50 nM mandipropamid. The colonies displaying the best uracil-independent growth were isolated and retested on different mandipropamid concentrations and then stained in β-galactosidase assays to rank their relative strength.

B1: S322D (protein, listed as Arabidopsis thaliana)
chain: MEEMTPAVAMTLSLAANTMCESSPVEITQLKNVTDAADLLSDSENQSFCNGGTECTMEDVSELEEVGEQDLLKTLSDTRSGSSNVFDEDDVLSVVEDNSAVISEGLLVVDAGSELSLSNTAMEIDNGRVLATAIIVGESSIEQVPTAEVLIAGVNQDTNTSEVVIRLPDENSNHLVKGRSVYELDCIPLWGTVSIQGNRSEMEDAFAVSPHFLKLPIKMLMGDHEGMSPSLTHLTGHFFGVYDGHGGHKVADYCRDRLHFALAEEIERIKDELCKRNTGEGRQVQWDKVFTSCFLTVDGEIEGKIGRAVVGSSDKVLEAVADETVGSTAVVALVCSSHIVVSNCGDSRAVLFRGKEAMPLSVDHKPDREDEYARIENAGGKVIQWQGARVFGVLAMSRSIGDRYLKPYVIPEPEVTFMPRSREDECLILASDGLWDVMNNQEVCEIARRRILMWHKKNGAPPLAERGKGIDPACQAAADYLSMLALQKGSKDNISIIVIDLKAQRKFKTRT
- effect of mutation on mandipropamid responsiveness of HAB1^!-3 (PYR1*^-MANDI): enhance responsiveness of HAB1^!-3

B2: R199A (protein, listed as Arabidopsis thaliana)
chain: MEEMTPAVAMTLSLAANTMCESSPVEITQLKNVTDAADLLSDSENQSFCNGGTECTMEDVSELEEVGEQDLLKTLSDTRSGSSNVFDEDDVLSVVEDNSAVISEGLLVVDAGSELSLSNTAMEIDNGRVLATAIIVGESSIEQVPTAEVLIAGVNQDTNTSEVVIRLPDENSNHLVKGRSVYELDCIPLWGTVSIQGNASEMEDAFAVSPHFLKLPIKMLMGDHEGMSPSLTHLTGHFFGVYDGHGGHKVADYCRDRLHFALAEEIERIKDELCKRNTGEGRQVQWDKVFTSCFLTVDGEIEGKIGRAVVGSSDKVLEAVASETVGSTAVVALVCSSHIVVSNCGDSRAVLFRGKEAMPLSVDHKPDREDEYARIENAGGKVIQWQGARVFGVLAMSRSIGDRYLKPYVIPEPEVTFMPRSREDECLILASDGLWDVMNNQEVCEIARRRILMWHKKNGAPPLAERGKGIDPACQAAADYLSMLALQKGSKDNISIIVIDLKAQRKFKTRT
- effect of mutation on mandipropamid responsiveness of HAB1^!-3 (PYR1*^-MANDI): enhance responsiveness of HAB1^!-3

B3: S322E (protein, listed as Arabidopsis thaliana)
chain: MEEMTPAVAMTLSLAANTMCESSPVEITQLKNVTDAADLLSDSENQSFCNGGTECTMEDVSELEEVGEQDLLKTLSDTRSGSSNVFDEDDVLSVVEDNSAVISEGLLVVDAGSELSLSNTAMEIDNGRVLATAIIVGESSIEQVPTAEVLIAGVNQDTNTSEVVIRLPDENSNHLVKGRSVYELDCIPLWGTVSIQGNRSEMEDAFAVSPHFLKLPIKMLMGDHEGMSPSLTHLTGHFFGVYDGHGGHKVADYCRDRLHFALAEEIERIKDELCKRNTGEGRQVQWDKVFTSCFLTVDGEIEGKIGRAVVGSSDKVLEAVAEETVGSTAVVALVCSSHIVVSNCGDSRAVLFRGKEAMPLSVDHKPDREDEYARIENAGGKVIQWQGARVFGVLAMSRSIGDRYLKPYVIPEPEVTFMPRSREDECLILASDGLWDVMNNQEVCEIARRRILMWHKKNGAPPLAERGKGIDPACQAAADYLSMLALQKGSKDNISIIVIDLKAQRKFKTRT
- effect of mutation on mandipropamid responsiveness of HAB1^!-3 (PYR1*^-MANDI): enhance responsiveness of HAB1^!-3

B4: PYR1^Y58H;K59R;V81I;F108A;S122G;M158V;F159V;A160V;T162D: PYR1 mutant with 9 mutations (protein, listed as Arabidopsis thaliana)
chain: MPSELTPEERSELKNSIAEFHTYQLDPGSCSSLHAQRIHAPPELVWSIVRRFDKPQTHRHFIKSCSVEQNFEMRVGCTRDIIVISGLPANTSTERLDILDDERRVTGASIIGGEHRLTNYKGVTTVHRFEKENRIWTVVLESYVVDMPEGNSEDDTRVVVDDVVKLNLQKLATVAEAMARNSGDGSGSQVT
- mandipropamid concentration to which the interaction responds (HAB1^!-2): nM responses
- relative mandipropamid sensitivity among selected mutants (HAB1^!-2): slightly less sensitive than PYR1*^-MANDI

B5: PYR1^Y58H;K59R;V81I;F108A;S122G;M158I;F159V;A160C;T162D: PYR1 mutant with 9 mutations (protein, listed as Arabidopsis thaliana)
chain: MPSELTPEERSELKNSIAEFHTYQLDPGSCSSLHAQRIHAPPELVWSIVRRFDKPQTHRHFIKSCSVEQNFEMRVGCTRDIIVISGLPANTSTERLDILDDERRVTGASIIGGEHRLTNYKGVTTVHRFEKENRIWTVVLESYVVDMPEGNSEDDTRIVCDDVVKLNLQKLATVAEAMARNSGDGSGSQVT
- mandipropamid concentration to which the interaction responds (HAB1^!-2): nM responses
- relative mandipropamid sensitivity among selected mutants (HAB1^!-2): slightly less sensitive than PYR1*^-MANDI

From patent US10919943B2, “Mutant proteins enabling agrochemical control of plant gene expression” (The Regents of the University of California, priority 2016, dated 2021)
